Reference: patent publication US20200057047A1 (NATIONAL HEALTH RESEARCH INSTITUTES, published 2020)
Each block holds one binder with its values, some of them ahead of it.

Key:
HA-tagged AhR = molecular target: T1, HA-tagged AhR (Homo sapiens (Human), UniProt P35869 1-848, limits assumed); experiment: co-IP, HEK293T cells co-transfected with IKKβ-CFP (FIG. 5I)
T1 construct: also called HA-AhR; purified AhR; not shown: HA tag
T1 sequence: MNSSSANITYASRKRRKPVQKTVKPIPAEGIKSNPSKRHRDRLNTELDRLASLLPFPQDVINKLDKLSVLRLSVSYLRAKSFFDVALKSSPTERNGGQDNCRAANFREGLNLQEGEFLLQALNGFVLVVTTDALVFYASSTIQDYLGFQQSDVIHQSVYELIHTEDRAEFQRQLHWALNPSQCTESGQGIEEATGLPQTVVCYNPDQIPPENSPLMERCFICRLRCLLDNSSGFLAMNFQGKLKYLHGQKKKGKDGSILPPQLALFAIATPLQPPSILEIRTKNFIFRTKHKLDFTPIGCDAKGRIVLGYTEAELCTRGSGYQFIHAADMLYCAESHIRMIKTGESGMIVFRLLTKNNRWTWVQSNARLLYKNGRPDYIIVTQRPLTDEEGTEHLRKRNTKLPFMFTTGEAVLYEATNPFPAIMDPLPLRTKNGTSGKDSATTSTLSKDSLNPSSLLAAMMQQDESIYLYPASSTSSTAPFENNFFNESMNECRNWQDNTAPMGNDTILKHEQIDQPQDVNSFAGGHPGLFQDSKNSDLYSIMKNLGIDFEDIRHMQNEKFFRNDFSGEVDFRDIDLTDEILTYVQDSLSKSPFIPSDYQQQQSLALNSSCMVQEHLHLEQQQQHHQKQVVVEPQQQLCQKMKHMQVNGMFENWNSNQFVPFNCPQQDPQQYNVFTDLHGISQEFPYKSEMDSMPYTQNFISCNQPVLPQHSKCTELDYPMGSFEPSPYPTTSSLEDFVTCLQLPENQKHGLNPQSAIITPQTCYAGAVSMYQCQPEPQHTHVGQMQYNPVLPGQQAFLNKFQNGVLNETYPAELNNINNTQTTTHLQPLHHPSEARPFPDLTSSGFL

[1] = molecular target: T2, Myc-tagged IQGAP1 (wild type) (Homo sapiens (Human), UniProt P46940 1-1657, phosphoserine at 480 where phosphorylated by GLK, as the filing reports); experiment: co-IP of anti-Flag immunocomplexes, HEK293T cells treated with 25 µM pervanadate (FIG. 18E)
T2 construct: the same molecule is used here; also called Myc-IQGAP1; IQGAP1 WT; not shown: Myc tag
T2 sequence (P46940 whole entry): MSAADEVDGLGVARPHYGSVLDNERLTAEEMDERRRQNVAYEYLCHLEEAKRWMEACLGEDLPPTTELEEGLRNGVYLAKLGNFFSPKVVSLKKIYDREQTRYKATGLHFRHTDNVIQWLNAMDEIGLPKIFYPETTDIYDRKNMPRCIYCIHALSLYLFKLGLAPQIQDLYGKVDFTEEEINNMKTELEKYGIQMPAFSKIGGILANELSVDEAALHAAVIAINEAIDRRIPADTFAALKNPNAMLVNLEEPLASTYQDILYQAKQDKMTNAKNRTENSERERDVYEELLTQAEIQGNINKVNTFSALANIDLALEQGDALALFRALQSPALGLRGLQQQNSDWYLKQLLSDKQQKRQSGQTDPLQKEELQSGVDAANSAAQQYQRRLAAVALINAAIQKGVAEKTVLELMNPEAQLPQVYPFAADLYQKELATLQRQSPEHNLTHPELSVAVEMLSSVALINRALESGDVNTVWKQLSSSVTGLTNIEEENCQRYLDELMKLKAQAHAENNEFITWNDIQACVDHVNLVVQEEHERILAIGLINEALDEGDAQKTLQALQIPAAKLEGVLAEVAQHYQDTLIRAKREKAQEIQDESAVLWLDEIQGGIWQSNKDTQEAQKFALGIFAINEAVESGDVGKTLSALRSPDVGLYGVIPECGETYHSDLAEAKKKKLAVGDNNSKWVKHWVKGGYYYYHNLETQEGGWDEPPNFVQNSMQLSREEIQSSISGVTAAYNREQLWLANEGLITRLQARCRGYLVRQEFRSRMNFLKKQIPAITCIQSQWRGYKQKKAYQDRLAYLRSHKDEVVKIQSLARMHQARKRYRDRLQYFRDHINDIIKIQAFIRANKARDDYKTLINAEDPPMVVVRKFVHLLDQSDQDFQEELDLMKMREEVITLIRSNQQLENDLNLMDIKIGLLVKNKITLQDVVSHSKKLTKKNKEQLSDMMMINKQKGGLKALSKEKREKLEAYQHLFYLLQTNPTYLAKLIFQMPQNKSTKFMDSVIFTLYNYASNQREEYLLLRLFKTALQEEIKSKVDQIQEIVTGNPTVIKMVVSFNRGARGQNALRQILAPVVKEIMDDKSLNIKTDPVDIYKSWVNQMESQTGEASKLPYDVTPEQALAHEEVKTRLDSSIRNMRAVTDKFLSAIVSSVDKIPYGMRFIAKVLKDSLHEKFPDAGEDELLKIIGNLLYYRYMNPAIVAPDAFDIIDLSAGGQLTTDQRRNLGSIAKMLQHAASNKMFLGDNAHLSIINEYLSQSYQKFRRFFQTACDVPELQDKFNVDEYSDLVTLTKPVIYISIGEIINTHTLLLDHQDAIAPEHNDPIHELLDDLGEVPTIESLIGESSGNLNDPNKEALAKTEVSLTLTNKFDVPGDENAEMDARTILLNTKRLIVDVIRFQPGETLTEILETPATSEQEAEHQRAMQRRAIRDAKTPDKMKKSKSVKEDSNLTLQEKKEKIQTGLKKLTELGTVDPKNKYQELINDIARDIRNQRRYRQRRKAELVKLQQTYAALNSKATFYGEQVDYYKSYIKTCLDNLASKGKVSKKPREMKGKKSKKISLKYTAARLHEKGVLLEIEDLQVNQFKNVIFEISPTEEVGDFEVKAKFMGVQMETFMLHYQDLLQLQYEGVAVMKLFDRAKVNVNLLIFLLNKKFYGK
Description: (A) Silver-stained gel of anti-Flag immunoprecipitates from HEK293T cells transfected with empty vector or Flag-tagged GLK in the presence or absence of the tyrosine phosphatase inhibitor pervanadate (25 μM). Arrows indicate the positions of GLK or GLK-interacting proteins. (B) Four pervanadate-induced tyrosine phosphorylation residues of GLK proteins were listed. (C and D) Co-immunoprecipitation of anti-Flag (C) or anti-Myc (D) immunocomplexes from lysates of HEK293T cells transfected with Flag-tagged GLK, Myc-tagged IQGAP1, or both plasmids. The whole-cell lysate immunoblots before immunoprecipitation (Pre-IP) are shown at the bottom of each panel. β-Tubulin was used as the loading control. (E) Co-immunoprecipitation of anti-Flag immunocomplexes from lysates of HEK293T cells transfected with either Flag-tagged GLK or Flag-tagged GLK mutant (Y366F, Y379F, Y574F, or Y735F). HEK293T cells were treated with 25 μM pervanadate for 2 h (F) In situ PI A of HEK293T cells transfected with empty vector, 3× Flag-tagged GLK, Myc-tagged IQGAP1, or GLK together with IQGAP1 plasmids. Arrows indicate the PLA signals (red spots). Original magnification, ×40. Scale bar, 10 μm. (G) The relative PLA signal of each group per field is shown on the plot. (H) FRET assays of HEK293T cells transfected with the indicated plasmids encoding CFP- and YFP-fused GLK and IQGAP1 proteins. […]

[2] = molecular target: T3, GLK (MAP4K3) (transfected; construct of the ALPHA assay with AhR not stated) (UniProt Q8IVH8 1-894, limits assumed); experiment: ALPHA protein-protein interaction assay
T3 construct: Expression plasmid 'reported previously'
T3 sequence (looked up): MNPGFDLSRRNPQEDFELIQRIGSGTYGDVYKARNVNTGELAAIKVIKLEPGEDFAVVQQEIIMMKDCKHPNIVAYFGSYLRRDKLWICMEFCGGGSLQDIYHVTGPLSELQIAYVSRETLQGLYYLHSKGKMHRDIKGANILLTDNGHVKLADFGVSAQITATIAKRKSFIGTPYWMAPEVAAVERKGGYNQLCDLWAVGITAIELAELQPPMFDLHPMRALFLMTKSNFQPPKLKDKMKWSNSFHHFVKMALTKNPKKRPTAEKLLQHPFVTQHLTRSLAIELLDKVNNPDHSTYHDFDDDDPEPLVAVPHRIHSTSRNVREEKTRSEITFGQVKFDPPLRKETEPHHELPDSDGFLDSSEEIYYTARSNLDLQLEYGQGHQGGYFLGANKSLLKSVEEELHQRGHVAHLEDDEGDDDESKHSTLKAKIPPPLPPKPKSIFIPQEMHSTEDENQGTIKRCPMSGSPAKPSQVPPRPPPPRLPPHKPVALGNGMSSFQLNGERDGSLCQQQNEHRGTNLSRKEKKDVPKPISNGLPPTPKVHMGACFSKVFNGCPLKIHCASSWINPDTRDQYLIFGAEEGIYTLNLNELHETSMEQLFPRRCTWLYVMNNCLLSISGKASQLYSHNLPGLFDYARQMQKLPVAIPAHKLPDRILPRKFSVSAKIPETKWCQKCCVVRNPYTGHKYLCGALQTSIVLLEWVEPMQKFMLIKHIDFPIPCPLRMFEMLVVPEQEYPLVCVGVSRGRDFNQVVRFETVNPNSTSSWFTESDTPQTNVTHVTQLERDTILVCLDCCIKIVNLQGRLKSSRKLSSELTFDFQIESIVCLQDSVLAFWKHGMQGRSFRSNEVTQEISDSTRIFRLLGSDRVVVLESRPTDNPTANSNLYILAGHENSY

binding result (HA-tagged AhR): no binding
B1: Flag-tagged RORγt-S489A mutant (receptor)
chain: DYKDDDDKMRTQIEVIPCKICGDKSSGIHYGVITCEGCKGFFRRSQQCNVAYSCTRQQNCPIDRTSRNRCQHCRLQKCLALGMSRDAVKFGRMSKKQRDSLHAEVQKQLQQQQQQEQVAKTPPAGSRGADTLTYTLGLSDGQLPLGASPDLPEASACPPGLLRASGSGPPYSNTLAKTEVQGASCHLEYSPERGKAEGRDSIYSTDGQLTLGRCGLRFEETRHPELGEPEQGPDSHCIPSFCSAPEVPYASLTDIEYLVQNVCKSFRETCQLRLEDLLRQRTNLFSREEVTSYQRKSMWEMWERCAHHLTEAIQYVVEFAKRLSGFMELCQNDQIILLKAGAMEVVLVRMCRAYNANNHTVFFEGKYGGVELFRALGCSELISSIFDFSHFLSALCFSEDEIALYTALVLINANRPGLQEKRRVEHLQYNLELAFHHHLCKTHRQGLLAKLPPKGKLRSLCSQHVEKLQIFQHLHPIVVQAAFPPLYKELFSTDVEAPEGLSK

binding result [1]: no binding
B2: Flag-tagged GLK (Y735F) mutant (enzyme)
chain: DYKDDDDKMNPGFDLSRRNPQEDFELIQRIGSGTYGDVYKARNVNTGELAAIKVIKLEPGEDFAVVQQEIIMMKDCKHPNIVAYFGSYLRRDKLWICMEFCGGGSLQDIYHVTGPLSELQIAYVSRETLQGLYYLHSKGKMHRDIKGANILLTDNGHVKLADFGVSAQITATIAKRKSFIGTPYWMAPEVAAVERKGGYNQLCDLWAVGITAIELAELQPPMFDLHPMRALFLMTKSNFQPPKLKDKMKWSNSFHHFVKMALTKNPKKRPTAEKLLQHPFVTQHLTRSLAIELLDKVNNPDHSTYHDFDDDDPEPLVAVPHRIHSTSRNVREEKTRSEITFGQVKFDPPLRKETEPHHELPDSDGFLDSSEEIYYTARSNLDLQLEYGQGHQGGYFLGANKSLLKSVEEELHQRGHVAHLEDDEGDDDESKHSTLKAKIPPPLPPKPKSIFIPQEMHSTEDENQGTIKRCPMSGSPAKPSQVPPRPPPPRLPPHKPVALGNGMSSFQLNGERDGSLCQQQNEHRGTNLSRKEKKDVPKPISNGLPPTPKVHMGACFSKVFNGCPLKIHCASSWINPDTRDQYLIFGAEEGIYTLNLNELHETSMEQLFPRRCTWLYVMNNCLLSISGKASQLYSHNLPGLFDYARQMQKLPVAIPAHKLPDRILPRKFSVSAKIPETKWCQKCCVVRNPYTGHKYLCGALQTSIVLLEWVEPMQKFMLIKHIDFPIPCPLRMFEMLVVPEQEFPLVCVGVSRGRDFNQVVRFETVNPNSTSSWFTESDTPQTNVTHVTQLERDTILVCLDCCIKIVNLQGRLKSSRKLSSELTFDFQIESIVCLQDSVLAFWKHGMQGRSFRSNEVTQEISDSTRIFRLLGSDRVVVLESRPTDNPTANSNLYILAGHENSY

binding result [2]: no binding
B3: AhR (transfected; construct of the ALPHA and FRET assays with PKCθ or GLK not stated) (receptor)
chain: MNSSSANITYASRKRRKPVQKTVKPIPAEGIKSNPSKRHRDRLNTELDRLASLLPFPQDVINKLDKLSVLRLSVSYLRAKSFFDVALKSSPTERNGGQDNCRAANFREGLNLQEGEFLLQALNGFVLVVTTDALVFYASSTIQDYLGFQQSDVIHQSVYELIHTEDRAEFQRQLHWALNPSQCTESGQGIEEATGLPQTVVCYNPDQIPPENSPLMERCFICRLRCLLDNSSGFLAMNFQGKLKYLHGQKKKGKDGSILPPQLALFAIATPLQPPSILEIRTKNFIFRTKHKLDFTPIGCDAKGRIVLGYTEAELCTRGSGYQFIHAADMLYCAESHIRMIKTGESGMIVFRLLTKNNRWTWVQSNARLLYKNGRPDYIIVTQRPLTDEEGTEHLRKRNTKLPFMFTTGEAVLYEATNPFPAIMDPLPLRTKNGTSGKDSATTSTLSKDSLNPSSLLAAMMQQDESIYLYPASSTSSTAPFENNFFNESMNECRNWQDNTAPMGNDTILKHEQIDQPQDVNSFAGGHPGLFQDSKNSDLYSIMKNLGIDFEDIRHMQNEKFFRNDFSGEVDFRDIDLTDEILTYVQDSLSKSPFIPSDYQQQQSLALNSSCMVQEHLHLEQQQQHHQKQVVVEPQQQLCQKMKHMQVNGMFENWNSNQFVPFNCPQQDPQQYNVFTDLHGISQEFPYKSEMDSMPYTQNFISCNQPVLPQHSKCTELDYPMGSFEPSPYPTTSSLEDFVTCLQLPENQKHGLNPQSAIITPQTCYAGAVSMYQCQPEPQHTHVGQMQYNPVLPGQQAFLNKFQNGVLNETYPAELNNINNTQTTTHLQPLHHPSEARPFPDLTSSGFL
